Experimental data from the Immune Epitope Database (IEDB).
Values belong to the sequence of their own block, whether it stands above or below them.

Legend:
HLA-A*11:01 = experiment: IEDB peptide-MHC binding, purified MHC/direct/fluorescence; filed as Kd, often an IC50 or EC50 that approximates it; ≥ and ≤ were set here for values at or beyond the usual limits of such assays
HLA-A*31:01 = experiment: as above
HLA-A*30:01 = experiment: as above
HLA-A*03:01 = experiment: as above
HLA-A*69:01 = experiment: as above
HLA-B*58:01 = experiment: as above
HLA-A*24:03 = experiment: as above
HLA-B*44:02 = experiment: as above
HLA-B*07:02 = experiment: as above
HLA-B*08:01 = experiment: as above
HLA-A*26:01 = experiment: as above
HLA-A*02:01 [1] = experiment: as above
HLA-A*01:01 = experiment: as above
HLA-B*15:01 = experiment: as above
HLA-B*27:05 = experiment: as above
HLA-B*40:01 = experiment: as above
HLA-A*02:01 [2] = experiment: IEDB peptide-MHC binding, purified MHC/competitive/radioactivity; ≥ and ≤ were set here for values at or beyond the usual limits of such assays
HLA-A*02:12 = experiment: IEDB peptide-MHC binding, purified MHC/direct/fluorescence; filed as Kd, often an IC50 or EC50 that approximates it; ≥ and ≤ were set here for values at or beyond the usual limits of such assays
HLA-B*18:01 = experiment: as above
HLA-B*57:01 = experiment: as above
HLA-A*02:16 = experiment: as above
HLA-B*27:03 = experiment: as above
HLA-B*39:01 = experiment: as above
HLA-A*29:02 = experiment: as above
HLA-B*15:17 = experiment: as above
HLA-A*02:19 = experiment: as above
HLA-B*46:01 = experiment: as above
HLA-A*02:11 = experiment: as above
HLA-A*02:03 = experiment: as above
HLA-B*48:01 = experiment: IEDB peptide-MHC binding, purified MHC/competitive/fluorescence; filed as Kd, often an IC50 or EC50 that approximates it; ≥ and ≤ were set here for values at or beyond the usual limits of such assays; details: source organism: Giardia lamblia ATCC 50803
HLA-A*68:02 = experiment: IEDB peptide-MHC binding, purified MHC/direct/fluorescence; filed as Kd, often an IC50 or EC50 that approximates it; ≥ and ≤ were set here for values at or beyond the usual limits of such assays
HLA-B*51:01 [3] = experiment: as above
HLA-B*45:06 = experiment: IEDB peptide-MHC binding, purified MHC/competitive/fluorescence; filed as Kd, often an IC50 or EC50 that approximates it; ≥ and ≤ were set here for values at or beyond the usual limits of such assays; details: source organism: Encephalitozoon cuniculi GB-M1
HLA-B*83:01 = experiment: as above; details: source organism: Encephalitozoon cuniculi GB-M1
HLA-B*15:42 = experiment: as above; details: source organism: Encephalitozoon cuniculi GB-M1
HLA-C*15:02 = experiment: IEDB peptide-MHC binding, purified MHC/direct/fluorescence; filed as Kd, often an IC50 or EC50 that approximates it; ≥ and ≤ were set here for values at or beyond the usual limits of such assays
HLA-C*06:02 = experiment: as above; details: source organism: Mus musculus
HLA-C*07:02 = experiment: as above
HLA-C*14:02 = experiment: as above
HLA-B*51:01 [4] = experiment: IEDB peptide-MHC binding, purified MHC/competitive/fluorescence; filed as Kd, often an IC50 or EC50 that approximates it; ≥ and ≤ were set here for values at or beyond the usual limits of such assays; details: source organism: Shigella boydii Sb227
[5] = source organism: Salmonella enterica subsp. enterica serovar Choleraesuis str. SC-B67
[6] = source organism: Salmonella enterica
[7] = source organism: Yersinia pestis
[8] = source organism: Brucella suis 1330
[9] = source organism: Salmonella enterica subsp. enterica serovar Virchow
[10] = source organism: Brucella abortus
[11] = source organism: Brucella melitensis
[12] = source organism: Vibrio parahaemolyticus AQ3810
[13] = source organism: Encephalitozoon cuniculi GB-M1
[14] = source organism: Vaccinia virus Copenhagen
[15] = source organism: Salmonella enterica subsp. enterica serovar Paratyphi B str. SPB7

Sequence: RTAKVRAFH
Kd (HLA-A*11:01; [5]): 0.069 µM | Kd (HLA-A*31:01; [6]): 0.15 µM | Kd (HLA-A*30:01; [5]): 0.032 µM | Kd (HLA-A*03:01; [6]): 0.241 µM

Sequence: VPRVHNQPQ
Kd (HLA-A*11:01; [7]): ≥ 20 µM | Kd (HLA-A*31:01; [7]): ≥ 20 µM | Kd (HLA-A*30:01; [7]): ≥ 20 µM | Kd (HLA-A*69:01; [7]): ≥ 20 µM | Kd (HLA-B*58:01; [7]): ≥ 20 µM | Kd (HLA-A*24:03; [7]): ≥ 20 µM | Kd (HLA-B*44:02; [7]): ≥ 20 µM | Kd (HLA-B*07:02; [7]): 0.0437 µM | Kd (HLA-B*08:01; [7]): 5.69 µM | Kd (HLA-A*26:01; [7]): ≥ 20 µM | Kd (HLA-A*02:01 [1]; [7]): ≥ 20 µM | Kd (HLA-A*03:01; [7]): ≥ 20 µM | Kd (HLA-A*01:01; [7]): ≥ 20 µM | Kd (HLA-B*15:01; [7]): ≥ 20 µM | Kd (HLA-B*27:05; [7]): ≥ 20 µM | Kd (HLA-B*40:01; [7]): ≥ 20 µM

Sequence: ALYIPPYEL
IC50 (HLA-A*02:01 [2]; source organism: Rhinovirus A): 0.586 µM

Sequence: QAHMGIAGL
Kd (HLA-A*02:12; [8]): ≥ 20 µM | Kd (HLA-B*18:01; [8]): ≥ 20 µM | Kd (HLA-B*57:01; [8]): ≥ 20 µM | Kd (HLA-A*02:16; [8]): ≥ 20 µM | Kd (HLA-B*27:03; [8]): ≥ 20 µM | Kd (HLA-B*39:01; [8]): ≥ 20 µM | Kd (HLA-A*29:02; [8]): ≥ 20 µM | Kd (HLA-B*15:17; [8]): 0.003 µM | Kd (HLA-A*24:03; [8]): ≥ 20 µM | Kd (HLA-A*02:19; [8]): ≥ 20 µM | Kd (HLA-A*26:01; [8]): ≥ 20 µM | Kd (HLA-B*46:01; [8]): ≥ 20 µM | Kd (HLA-A*02:01 [1]; [8]): ≥ 20 µM | Kd (HLA-A*03:01; [8]): ≥ 20 µM | Kd (HLA-A*02:11; [8]): ≥ 20 µM | Kd (HLA-B*15:01; [8]): ≥ 20 µM | Kd (HLA-A*02:03; [8]): ≥ 20 µM

Sequence: FLCKQYLNL
IC50 (HLA-A*02:01 [2]; source organism: Hepatitis B virus): 0.029 µM

Sequence: GQPHSLASL
Kd (HLA-B*48:01): 0.149 µM

IC50 (HLA-A*02:01 [2]; source organism: Homo sapiens): 0.0132 µM
Sequence: VLYRYGSFSV

Sequence: CTWPEASRY
Kd (HLA-A*68:02; [9]): ≥ 20 µM | Kd (HLA-A*02:12; [9]): ≥ 20 µM | Kd (HLA-A*02:16; [9]): ≥ 20 µM | Kd (HLA-B*27:03; [9]): ≥ 20 µM | Kd (HLA-B*39:01; [9]): ≥ 20 µM | Kd (HLA-A*69:01; [9]): ≥ 20 µM | Kd (HLA-B*15:17; [9]): 0.026 µM | Kd (HLA-A*24:03; [9]): ≥ 20 µM | Kd (HLA-A*02:19; [9]): ≥ 20 µM | Kd (HLA-B*46:01; [9]): ≥ 20 µM | Kd (HLA-B*51:01 [3]; [9]): ≥ 20 µM | Kd (HLA-A*02:01 [1]; [9]): ≥ 20 µM | Kd (HLA-A*03:01; [9]): ≥ 20 µM | Kd (HLA-A*02:11; [9]): ≥ 20 µM | Kd (HLA-A*02:03; [9]): ≥ 20 µM

Sequence: EKPPVRPIF
Kd (HLA-A*31:01; [10]): ≥ 20 µM | Kd (HLA-A*30:01; [11]): 8.74 µM | Kd (HLA-A*69:01; [10]): ≥ 20 µM | Kd (HLA-B*58:01; [10]): ≥ 20 µM | Kd (HLA-B*44:02; [10]): ≥ 20 µM | Kd (HLA-B*07:02; [10]): ≥ 20 µM | Kd (HLA-B*08:01; [11]): 5.61 µM | Kd (HLA-A*26:01; [10]): ≥ 20 µM | Kd (HLA-A*02:01 [1]; [10]): ≥ 20 µM | Kd (HLA-A*03:01; [10]): ≥ 20 µM | Kd (HLA-A*01:01; [10]): ≥ 20 µM | Kd (HLA-B*15:01; [10]): ≥ 20 µM | Kd (HLA-B*27:05; [10]): ≥ 20 µM | Kd (HLA-B*40:01; [10]): ≥ 20 µM

Sequence: RLDKPLWLH
Kd (HLA-A*68:02; [12]): ≥ 20 µM | Kd (HLA-A*02:12; [12]): ≥ 20 µM | Kd (HLA-B*18:01; [12]): ≥ 20 µM | Kd (HLA-B*57:01; [12]): ≥ 20 µM | Kd (HLA-A*02:16; [12]): ≥ 20 µM | Kd (HLA-B*27:03; [12]): ≥ 20 µM | Kd (HLA-B*39:01; [12]): ≥ 20 µM | Kd (HLA-A*69:01; [12]): ≥ 20 µM | Kd (HLA-A*02:19; [12]): ≥ 20 µM | Kd (HLA-A*26:01; [12]): ≥ 20 µM | Kd (HLA-B*46:01; [12]): ≥ 20 µM | Kd (HLA-B*51:01 [3]; [12]): ≥ 20 µM | Kd (HLA-A*02:01 [1]; [12]): ≥ 20 µM | Kd (HLA-B*15:01; [12]): ≥ 20 µM | Kd (HLA-A*02:03; [12]): ≥ 20 µM

Kd (HLA-B*45:06): ≥ 5 µM | Kd (HLA-B*83:01): ≥ 5 µM | Kd (HLA-B*15:42): ≥ 5 µM | Kd (HLA-A*02:12; [13]): ≥ 20 µM | Kd (HLA-B*18:01; [13]): ≥ 20 µM | Kd (HLA-B*57:01; [13]): ≥ 20 µM | Kd (HLA-A*02:16; [13]): ≥ 20 µM | Kd (HLA-B*27:03; [13]): ≥ 20 µM | Kd (HLA-B*39:01; [13]): ≥ 20 µM | Kd (HLA-A*29:02; [13]): ≥ 20 µM | Kd (HLA-B*15:17; [13]): ≤ 0.001 µM | Kd (HLA-A*24:03; [13]): ≥ 20 µM | Kd (HLA-A*02:19; [13]): ≥ 20 µM | Kd (HLA-A*26:01; [13]): ≥ 20 µM | Kd (HLA-B*51:01 [3]; [13]): ≥ 20 µM | Kd (HLA-A*02:01 [1]; [13]): ≥ 20 µM | Kd (HLA-A*03:01; [13]): ≥ 20 µM | Kd (HLA-A*02:11; [13]): ≥ 20 µM | Kd (HLA-A*02:03; [13]): ≥ 20 µM
Sequence: FSFFMNENF

Sequence: SLYNLVAVL
IC50 (HLA-A*02:01 [2]; source organism: Human immunodeficiency virus 1): 0.027 µM

Kd (HLA-C*15:02; source organism: Mus musculus): ≥ 20 µM | Kd (HLA-C*06:02): ≥ 20 µM
Sequence: LWFRNHFVF

Sequence: RYWYFAAEL
Kd (HLA-C*07:02; [14]): 1.01 µM | Kd (HLA-C*14:02; [14]): 0.015 µM

Sequence: SVFTGLLPF
Kd (HLA-C*07:02; [15]): 0.507 µM | Kd (HLA-C*14:02; [15]): 0.56 µM | Kd (HLA-C*15:02; [15]): 12.3 µM

IC50 (HLA-A*02:01 [2]; source organism: Homo sapiens): 1.77 µM
Sequence: RQASIELPSM

Sequence: FPAWFAWIF
Kd (HLA-B*51:01 [4]): ≥ 20 µM | Kd (HLA-C*07:02; source organism: Shigella boydii Sb227): ≥ 20 µM
